Columns and labels:
[1] = target: T1, PEDF AAA variant (S24,114, 227A)
T1 chain: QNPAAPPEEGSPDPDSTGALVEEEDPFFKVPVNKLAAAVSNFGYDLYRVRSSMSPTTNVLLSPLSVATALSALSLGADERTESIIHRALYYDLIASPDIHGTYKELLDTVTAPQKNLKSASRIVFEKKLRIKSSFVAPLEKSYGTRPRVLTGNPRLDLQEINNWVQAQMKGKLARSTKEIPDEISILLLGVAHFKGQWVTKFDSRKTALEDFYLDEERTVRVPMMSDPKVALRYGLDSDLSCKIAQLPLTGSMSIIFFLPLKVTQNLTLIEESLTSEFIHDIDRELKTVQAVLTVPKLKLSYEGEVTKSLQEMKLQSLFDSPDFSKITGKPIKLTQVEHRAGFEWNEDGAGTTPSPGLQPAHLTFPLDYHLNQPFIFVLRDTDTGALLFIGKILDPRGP

[2] = target: T2, PEDF AAE variant (S24,114A, 227E)
T2 chain: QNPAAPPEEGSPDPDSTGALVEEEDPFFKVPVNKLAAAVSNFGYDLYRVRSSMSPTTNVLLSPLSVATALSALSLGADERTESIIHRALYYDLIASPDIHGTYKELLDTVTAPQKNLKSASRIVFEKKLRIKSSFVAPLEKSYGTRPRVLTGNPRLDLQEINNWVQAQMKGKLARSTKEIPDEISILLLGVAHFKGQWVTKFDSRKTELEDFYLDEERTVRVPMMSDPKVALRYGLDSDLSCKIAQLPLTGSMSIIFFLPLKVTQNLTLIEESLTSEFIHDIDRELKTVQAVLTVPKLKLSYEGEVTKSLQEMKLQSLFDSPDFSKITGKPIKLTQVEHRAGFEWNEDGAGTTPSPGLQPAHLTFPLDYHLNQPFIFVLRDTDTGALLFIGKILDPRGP

[3] = target: T3, PEDF EEA variant (S24,114E, 227A)
T3 chain: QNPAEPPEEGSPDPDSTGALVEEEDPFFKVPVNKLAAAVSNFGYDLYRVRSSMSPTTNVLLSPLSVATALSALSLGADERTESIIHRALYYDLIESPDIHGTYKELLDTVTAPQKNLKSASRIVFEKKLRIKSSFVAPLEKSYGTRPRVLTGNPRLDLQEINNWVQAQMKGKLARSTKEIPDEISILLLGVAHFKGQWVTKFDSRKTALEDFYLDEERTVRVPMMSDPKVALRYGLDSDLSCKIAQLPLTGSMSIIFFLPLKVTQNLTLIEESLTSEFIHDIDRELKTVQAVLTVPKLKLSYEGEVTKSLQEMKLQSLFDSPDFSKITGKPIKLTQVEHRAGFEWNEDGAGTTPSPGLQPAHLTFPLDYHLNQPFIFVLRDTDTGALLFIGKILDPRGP

[4] = target: T4, PEDF EEE variant (S24,114, 227E)
T4 chain: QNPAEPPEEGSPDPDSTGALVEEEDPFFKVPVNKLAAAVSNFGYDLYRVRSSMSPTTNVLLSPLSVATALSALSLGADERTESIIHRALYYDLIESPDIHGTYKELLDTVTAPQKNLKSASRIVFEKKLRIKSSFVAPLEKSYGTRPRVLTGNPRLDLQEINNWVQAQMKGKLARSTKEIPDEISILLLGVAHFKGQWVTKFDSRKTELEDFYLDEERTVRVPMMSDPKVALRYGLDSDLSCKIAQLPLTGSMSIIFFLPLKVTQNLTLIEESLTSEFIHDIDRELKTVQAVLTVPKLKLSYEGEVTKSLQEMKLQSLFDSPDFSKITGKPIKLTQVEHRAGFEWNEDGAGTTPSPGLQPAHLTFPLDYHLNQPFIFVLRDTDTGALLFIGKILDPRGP

PEDF S227A variant = target: T5, PEDF S227A variant
T5 chain: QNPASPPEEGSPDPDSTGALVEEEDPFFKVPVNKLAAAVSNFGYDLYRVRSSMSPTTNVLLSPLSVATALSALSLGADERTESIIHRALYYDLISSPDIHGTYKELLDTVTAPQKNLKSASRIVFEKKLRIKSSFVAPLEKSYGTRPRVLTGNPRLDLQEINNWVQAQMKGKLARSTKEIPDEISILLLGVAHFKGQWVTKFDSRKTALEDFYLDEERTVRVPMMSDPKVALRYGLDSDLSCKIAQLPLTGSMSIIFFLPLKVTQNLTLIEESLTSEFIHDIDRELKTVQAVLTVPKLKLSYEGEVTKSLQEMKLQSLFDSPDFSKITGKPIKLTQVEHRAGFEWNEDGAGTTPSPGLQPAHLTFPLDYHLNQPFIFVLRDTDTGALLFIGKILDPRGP

PEDF S227E variant = target: T6, PEDF S227E variant
T6 chain: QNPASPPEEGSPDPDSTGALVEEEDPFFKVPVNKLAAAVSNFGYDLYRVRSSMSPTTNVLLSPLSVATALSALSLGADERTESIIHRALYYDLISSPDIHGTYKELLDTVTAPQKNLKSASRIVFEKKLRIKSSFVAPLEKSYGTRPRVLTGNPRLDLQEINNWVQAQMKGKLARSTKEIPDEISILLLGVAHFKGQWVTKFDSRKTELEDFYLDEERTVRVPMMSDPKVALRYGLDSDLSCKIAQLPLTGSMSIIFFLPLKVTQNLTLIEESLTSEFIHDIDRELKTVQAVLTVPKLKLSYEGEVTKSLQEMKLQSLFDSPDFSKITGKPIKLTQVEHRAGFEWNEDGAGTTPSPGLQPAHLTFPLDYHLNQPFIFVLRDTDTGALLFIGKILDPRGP

[5] = target: T7, PEDF purified from human plasma (plPEDF)
T7 chain: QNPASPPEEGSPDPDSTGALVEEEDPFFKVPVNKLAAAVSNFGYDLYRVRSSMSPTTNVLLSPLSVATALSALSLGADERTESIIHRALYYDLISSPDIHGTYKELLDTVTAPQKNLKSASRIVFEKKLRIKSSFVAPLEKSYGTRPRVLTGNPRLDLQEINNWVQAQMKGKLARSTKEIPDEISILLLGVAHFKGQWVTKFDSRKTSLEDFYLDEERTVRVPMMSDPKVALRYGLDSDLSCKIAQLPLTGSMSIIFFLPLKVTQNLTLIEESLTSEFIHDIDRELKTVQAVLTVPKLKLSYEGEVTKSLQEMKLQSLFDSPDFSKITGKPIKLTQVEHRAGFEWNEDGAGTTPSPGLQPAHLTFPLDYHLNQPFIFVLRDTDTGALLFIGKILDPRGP

[6] = target: T8, Recombinant human pigment epithelium derived factor (rPEDF)
T8 chain: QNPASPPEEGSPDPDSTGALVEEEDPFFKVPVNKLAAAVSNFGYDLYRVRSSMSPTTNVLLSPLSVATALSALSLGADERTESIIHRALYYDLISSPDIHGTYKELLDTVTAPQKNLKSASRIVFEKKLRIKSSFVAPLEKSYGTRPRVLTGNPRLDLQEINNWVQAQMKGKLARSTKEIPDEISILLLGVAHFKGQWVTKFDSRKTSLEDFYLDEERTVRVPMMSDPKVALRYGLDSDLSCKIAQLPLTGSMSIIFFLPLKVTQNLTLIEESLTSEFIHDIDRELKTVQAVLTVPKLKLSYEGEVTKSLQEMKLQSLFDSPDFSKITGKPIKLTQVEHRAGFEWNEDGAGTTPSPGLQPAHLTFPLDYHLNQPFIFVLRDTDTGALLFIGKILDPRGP

B1: Recombinant human CK2 (casein kinase CK2) (protein)
chain: MSGPVPSRARVYTDVNTHRPREYWDYESHVVEWGNQDDYQLVRKLGRGKYSEVFEAINITNNEKVVVKILKPVKKKKIKREIKILENLRGGPNIITLADIVKDPVSRTPALVFEHVNNTDFKQLYQTLTDYDIRFYMYEILKALDYCHSMGIMHRDVKPHNVMIDHEHRKLRLIDWGLAEFYHPGQEYNVRVASRYFKGPELLVDYQMYDYSLDMWSLGCMLASMIFRKEPFFHGHDNYDQLVRIAKVLGTEDLYDYIDKYNIELDPRFNDILGRHSRKRWERFVHSENQHLVSPEALDFLDKLLRYDHQSRLTAREAMEHPYFYTVVKDQARMGSSSMPGGSTPVSSANMMSGISSVPTPSPLGPLAGSPVIAAANPLGMPVPAAAGAQQ
In the case of B1, the “in vitro phosphorylation by CK2” value [1] is reported as “The AAE and the AAA variants almost completely abolished CK2 phosphorylation”, the “in vitro phosphorylation by CK2” value [2] is reported as “The AAE and the AAA variants almost completely abolished CK2 phosphorylation” and the “in vitro phosphorylation by CK2” value [3] is reported as “the triple mutants EEE and EEA were readily phosphorylated by CK2”. The “in vitro phosphorylation by CK2” value [4] was “the triple mutants EEE and EEA were readily phosphorylated by CK2”, the “in vitro phosphorylation by CK2 ([γ32P]-ATP, SDS-PAGE, autoradiography)” value (PEDF S227A variant) was “both readily phosphorylated by CK2” and the “in vitro phosphorylation by CK2 ([γ32P]-ATP, SDS-PAGE, autoradiography)” value (PEDF S227E variant) was “both readily phosphorylated by CK2”. For the same protein, the “in vitro phosphorylation by CK2 ([γ32P]-ATP, SDS-PAGE, autoradiography)” value [5] was “the phosphorylation of the plPEDF by CK2 was significantly lower than CK2 phosphorylation of the rPEDF” and the “in vitro phosphorylation by CK2 ([γ32P]-ATP, SDS-PAGE, autoradiography)” value [6] was “the phosphorylation of the plPEDF by CK2 was significantly lower than CK2 phosphorylation of the rPEDF”.

Source: patent publication US20080274967
